The text below walks through data of article PMC3897428 (PLoS ONE, 2014).

Holding throughout (details): one partner purified
Assay [1] has as its target T1, chimpanzee uPAR in tissues (chimpanzee (endogenous in tissues), UniProt Q9GK80).
T1 construct: source: endogenous, chimpanzee tissues
As to the kind of experiment: immunostaining of cells or tissue; immunohistochemistry of chimpanzee tissues with ATN-658; no figure or methods given.

The target in assay [2] is T2, African green monkey uPAR on COS-1 cells (Chlorocebus aethiops (COS-1 cells), UniProt Q9GK79).
T2 construct: also called AGM uPAR; source: endogenous, on COS-1 cells
T2 sequence (Q9GK79 whole entry, looked up): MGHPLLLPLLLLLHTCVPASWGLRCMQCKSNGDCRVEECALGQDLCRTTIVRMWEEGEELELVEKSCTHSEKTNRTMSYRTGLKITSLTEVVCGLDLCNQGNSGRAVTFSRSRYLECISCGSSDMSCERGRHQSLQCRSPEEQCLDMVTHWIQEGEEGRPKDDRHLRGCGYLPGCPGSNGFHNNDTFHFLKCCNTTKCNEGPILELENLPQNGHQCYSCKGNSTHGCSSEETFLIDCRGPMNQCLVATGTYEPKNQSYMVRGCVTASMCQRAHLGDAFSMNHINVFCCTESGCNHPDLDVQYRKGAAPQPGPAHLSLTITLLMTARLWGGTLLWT
As to the kind of experiment: flow cytometry on cells; cells incubated with ATN-658 (10 µg/mL) 1 h at 4°C in FACS buffer, Alexa Fluor 488 secondary antibody.

Assay [3] addresses T3, human uPAR on the surface of cells (PC-3, HeLa) (Homo sapiens, UniProt Q03405).
T3 construct: source: endogenous, on PC-3 and HeLa cells
In words: radioligand binding; iodinated ATN-658 on the surface of HeLa cells.

The target in assay [4] is T2, African green monkey uPAR on COS-1 cells. In words: whole cell saturation binding assay; adherent cells on gelatin coated 12-well plates, varying concentrations of biotin-labeled ATN-658 in HBSS/0.1% BSA, 1 h at room temperature, HRP-streptavidin and OPD.
The target of assay [5] is T4, mouse uPAR on B16 melanoma cells (Mus musculus (B16 melanoma), UniProt P35456).
T4 construct: source: endogenous, on B16 cells
T4 sequence (P35456 24-298): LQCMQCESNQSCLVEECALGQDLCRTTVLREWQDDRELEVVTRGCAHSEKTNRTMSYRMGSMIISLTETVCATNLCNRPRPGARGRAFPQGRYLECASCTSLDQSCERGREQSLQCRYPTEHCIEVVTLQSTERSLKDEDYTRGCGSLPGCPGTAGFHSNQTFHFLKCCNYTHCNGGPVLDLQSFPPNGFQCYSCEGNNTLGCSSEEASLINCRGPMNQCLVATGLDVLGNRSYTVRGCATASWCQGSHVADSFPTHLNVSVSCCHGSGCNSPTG
The assay is described as above.

Assay [6] concerns the target T5, African green monkey (AGM) suPAR (Chlorocebus aethiops (COS-1 cells), UniProt Q9GK79).
T5 construct: soluble uPAR (suPAR) of African green monkey (Cercopithecus aethiops), cloned from COS-1 cells by PCR; numbers count on: the mature protein; Parent of the nine point mutants; also called monkey suPAR; source: Drosophila S2 cells, expressed as described for human suPAR
In words: ELISA; capture ELISA: suPAR clones from culture supernatant captured by anti-V5 antibody on the plate, biotin-ATN-658, streptavidin-HRP, OPD; saturation binding. Background: ELISA stands for enzyme-linked immunosorbent assay.

T1 sequence (Q9GK80 23-305): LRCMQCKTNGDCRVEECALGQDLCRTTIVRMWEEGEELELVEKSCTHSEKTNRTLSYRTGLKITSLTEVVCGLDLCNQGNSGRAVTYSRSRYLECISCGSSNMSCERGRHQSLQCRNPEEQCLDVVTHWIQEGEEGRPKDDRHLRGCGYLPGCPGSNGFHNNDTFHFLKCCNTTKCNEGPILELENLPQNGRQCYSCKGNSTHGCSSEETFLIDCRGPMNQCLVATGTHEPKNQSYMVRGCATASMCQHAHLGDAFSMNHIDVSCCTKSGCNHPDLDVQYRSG
T3 sequence (Q03405 23-305): as the sequence (Q9GK80 23-305) above, with M31L, N102D, N117S counted along it
T5 sequence (Q9GK79 whole entry, looked up): as the sequence (Q9GK79 whole entry, looked up) above

B1: ATN-658 monoclonal antibody (antibody, V domains shown)
VH: EVQLQQSGPELVKTGASVKISCKASGYSFTSYYMHWVKQSHGKSLEWIGEINPYNGGASYNQKIKGRATFTVDTSSRTAYMQFNSLTSEDSAVYYCARSIYGHSVLDYWGQGTSVSVSS
VL: not shown
notes: Fab part as the heavy chain of m4, followed by the rest of a mouse IgG1 heavy chain; as the light chain of m4 (kappa); Mouse IgG1 kappa; source: mouse hybridoma tissue culture supernatant, purified (protein-A Sepharose)
On to B1, for which the results for the binding result in assay [1] and in assay [2] were “binds” and “no binding (tested: 10 µg/mL)”, respectively.

B2: iodinated ATN-658 (antibody, V domains shown)
VH: B1 VH
VL: not shown
notes: as the heavy chain of m1; as the light chain of m1; Mouse IgG1 kappa; source: mouse hybridoma tissue culture supernatant, purified (protein-A Sepharose), iodinated
For orientation: Kd means the free concentration of one partner at which half of the binding sites on the other are occupied at equilibrium, for simple one-to-one binding. B2: the equilibrium dissociation constant (Kd) in assay [3] was ~5 nM.

B3: Biotin-ATN-658 (antibody, V domains shown)
VH: B1 VH
VL: not shown
notes: as the heavy chain of m1; as the light chain of m1; Mouse IgG1 kappa
Consider B3, for which the binding result in assay [4] is reported as “no binding”; in assay [5], “no binding”; in assay [6], “no binding (tested: 1 µg/mL biotin-ATN-658 (methods))”.
